Experimental data: patent publication US20060104978

How the values were obtained:
[1] = biological target: T1, CUBc-myc (CUB domain of PDGF-C, residues 1 to 165, with a human c-myc tag), Q9NRA1
T1 chain: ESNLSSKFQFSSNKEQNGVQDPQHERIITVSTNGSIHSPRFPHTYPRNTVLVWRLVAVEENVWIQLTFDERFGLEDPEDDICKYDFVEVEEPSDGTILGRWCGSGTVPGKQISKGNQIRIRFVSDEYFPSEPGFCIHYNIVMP

[2] = biological target: PDGF-CC deletion mutant ΔN150, Q9NRA1
[3] = biological target: PDGF-CC deletion mutant ΔN170, Q9NRA1
[4] = biological target: PDGF-CC deletion mutant ΔN190, Q9NRA1
[5] = biological target: PDGF-CC deletion mutant ΔN210, Q9NRA1
[6] = biological target: PDGF-CC deletion mutant ΔN230, Q9NRA1
[7] = biological target: T2, chimeric PDCUBPC (CUB region of PDGF-D, hinge/core region of PDGF-C), Q9GZP0
T2 chain: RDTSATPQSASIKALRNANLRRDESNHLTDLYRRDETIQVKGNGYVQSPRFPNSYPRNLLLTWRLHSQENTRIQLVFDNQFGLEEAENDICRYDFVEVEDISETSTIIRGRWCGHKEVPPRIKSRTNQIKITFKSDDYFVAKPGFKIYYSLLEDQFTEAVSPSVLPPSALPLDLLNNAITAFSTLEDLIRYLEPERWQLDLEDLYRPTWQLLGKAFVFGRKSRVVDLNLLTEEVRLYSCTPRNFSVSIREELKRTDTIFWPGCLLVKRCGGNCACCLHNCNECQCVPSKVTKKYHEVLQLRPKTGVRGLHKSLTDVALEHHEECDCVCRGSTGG

[8] = biological target: cleavage site mutant of mouse PDGF-C (-K-K-S-K- replaced by four alanines), Q8CI19
[9] = biological target: full-length PDGF-C expressed in transfected COS-1 cells (latent PDGF-CC), Q9NRA1
[10] = biological target: full-length PDGF-D expressed in transfected COS-1 cells (latent PDGF-DD), Q9GZP0
[11] = biological target: recombinant His6-tagged latent (full-length) PDGF-DD, Q9GZP0
[12] = biological target: recombinant His6-tagged latent (full-length) human PDGF-CC, Q9NRA1
[13] = biological target: T3, endogenous latent PDGF-CC secreted by primary mouse fibroblasts, Q8CI19
T3 chain: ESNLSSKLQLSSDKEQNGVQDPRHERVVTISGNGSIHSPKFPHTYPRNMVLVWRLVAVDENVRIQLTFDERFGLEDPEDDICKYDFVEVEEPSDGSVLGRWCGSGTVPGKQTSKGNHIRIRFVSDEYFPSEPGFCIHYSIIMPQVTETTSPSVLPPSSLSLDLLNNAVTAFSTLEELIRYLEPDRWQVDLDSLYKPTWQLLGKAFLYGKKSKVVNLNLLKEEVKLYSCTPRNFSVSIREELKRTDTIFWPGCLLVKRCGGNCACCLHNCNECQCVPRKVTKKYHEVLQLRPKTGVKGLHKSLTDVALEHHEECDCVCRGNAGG

B1: full-length human tPA expressed in transfected COS-1 cells (pSG5) (protein)
chain: SYQVICRDEKTQMIYQQHQSWLRPVLRSNRVEYCWCNSGRAQCHSVPVKSCSEPRCFNGGTCQQALYFSDFVCQCPEGFAGKCCEIDTRATCYEDQGISYRGTWSTAESGAECTNWNSSALAQKPYSGRRPDAIRLGLGNHNYCRNPDRDSKPWCYVFKAGKYSSEFCSTPACSEGNSDCYFGNGSAYRGTHSLTESGASCLPWNSMILIGKVYTAQNPSAQALGLGKHNYCRNPDGDAKPWCHVLKNRRLTWEYCDVPSCSTCGLRQYSQPQFRIKGGLFADIASHPWQAAIFAKHRRSPGERFLCGGILISSCWILSAAHCFQERFPPHHLTVILGRTYRVVPGEEEQKFEVEKYIVHKEFDDDTYDNDIALLQLKSDSSRCAQESSVVRTVCLPPADLQLPDWTECELSGYGKHEALSPFYSERLKEAHVRLYPSSRCTSQHLLNRTVTDNMLCAGDTRSGGPQANLHDACQGDSGGPLVCLNDGRMTLVGIISWGLGCGQKDVPGVYTKVTNYLDWIRDNMRP
cleavage of full-length PDGF-CC by tPA in the cotransfection assay (immunoblot) [1]: the CUB domain efficiently competed for the interaction and processing of latent PDGF-CC by tPA | proteolytic cleavage in the cotransfection assay (immunoblot) [2]: neither chimeric PDCUBPC, nor the truncation mutants lacking the CUB domain, were efficiently cleaved | proteolytic cleavage in the cotransfection assay (immunoblot) [3]: neither chimeric PDCUBPC, nor the truncation mutants lacking the CUB domain, were efficiently cleaved | proteolytic cleavage in the cotransfection assay (immunoblot) [4]: neither chimeric PDCUBPC, nor the truncation mutants lacking the CUB domain, were efficiently cleaved | proteolytic cleavage in the cotransfection assay (immunoblot) [5]: neither chimeric PDCUBPC, nor the truncation mutants lacking the CUB domain, were efficiently cleaved | proteolytic cleavage in the cotransfection assay (immunoblot) [6]: neither chimeric PDCUBPC, nor the truncation mutants lacking the CUB domain, were efficiently cleaved | proteolytic cleavage in the cotransfection assay (immunoblot) [7]: neither chimeric PDCUBPC, nor the truncation mutants lacking the CUB domain, were efficiently cleaved | proteolytic cleavage in the cotransfection assay (immunoblot) [8]: the mutant was resistant to tPA-mediated cleavage | proteolytic cleavage in the cotransfection assay (SDS-PAGE, immunoblot) [9]: tPA released the growth factor domain of latent PDGFCC, and the fragment migrated as a 22 kDa species under reducing conditions | proteolytic cleavage in the cotransfection assay (SDS-PAGE, immunoblot) [10]: neither of the two enzymes was able to cleave and activate latent PDGF-DD

B2: tPA purified from human melanoma cells (T7776, Sigma) (protein)
chain: B1 chain
in vitro cleavage with purified tPA (SDS-PAGE, immunoblot) [11]: PDGF-CC, but not PDGF-DD, is a substrate for tPA | in vitro cleavage with purified tPA (SDS-PAGE, immunoblot) [12]: PDGF-CC, but not PDGF-DD, is a substrate for tPA

B3: endogenous tPA of primary mouse fibroblasts (protein)
chain: SYRATCRDEPTQTTYQQHQSWLRPMLRSSRVEYCRCNSGLVQCHSVPVRSCSEPRCFNGGTCQQALYFSDFVCQCPDGFVGKRCDIDTRATCFEEQGITYRGTWSTAESGAECINWNSSVLSLKPYNARRPNAIKLGLGNHNYCRNPDRDLKPWCYVFKAGKYTTEFCSTPACPKGKSEDCYVGKGVTYRGTHSLTTSQASCLPWNSIVLMGKSYTAWRTNSQALGLGRHNYCRNPDGDARPWCHVMKDRKLTWEYCDMSPCSTCGLRQYKRPQFRIKGGLYTDITSHPWQAAIFVKNKRSPGERFLCGGVLISSCWVLSAAHCFLERFPPNHLKVVLGRTYRVVPGEEEQTFEIEKYIVHEEFDDDTYDNDIALLQLRSQSKQCAQESSSVGTACLPDPNLQLPDWTECELSGYGKHEASSPFFSDRLKEAHVRLYPSSRCTSQHLFNKTVTNNMLCAGDTRSGGNQDLHDACQGDSGGPLVCMINKQMTLTGIISWGLGCGQKDVPGVYTKVTNYLDWIHDNMKQ
processing of latent PDGF-CC in medium of tPA-deficient against wild-type fibroblasts (immunoblot) [13]: the generation of double species migrating as 22-25 kDa was reduced to less than 10%

B4: human neurotrypsin (NT) expressed in transfected COS-1 cells (pSG5) (protein)
chain: FDSVLNDSLHHSHRHSPPAGPHYPYYLPTQQRPPRTRPPPPLPRFPRPPRALPAQRPHALQAGHTPRPHPWGCPAGEPWVSVTDFGAPCLRWAEVPPFLERSPPASWAQLRGQRHNFCRSPDGAGRPWCFYGDARGKVDWGYCDCRHGSVRLRGGKNEFEGTVEVYASGVWGTVCSSHWDDSDASVICHQLQLGGKGIAKQTPFSGLGLIPIYWSNVRCRGDEENILLCEKDIWQGGVCPQKMAAAVTCSFSHGPTFPIIRLAGGSSVHEGRVELYHAGQWGTVCDDQWDDADAEVICRQLGLSGIAKAWHQAYFGEGSGPVMLDEVRCTGNELSIEQCPKSSWGEHNCGHKEDAGVSCTPLTDGVIRLAGGKGSHEGRLEVYYRGQWGTVCDDGWTELNTYVVCRQLGFKYGKQASANHFEESTGPIWLDDVSCSGKETRFLQCSRRQWGRHDCSHREDVSIACYPGGEGHRLSLGFPVRLMDGENKKEGRVEVFINGQWGTICDDGWTDKDAAVICRQLGYKGPARARTMAYFGEGKGPIHVDNVKCTGNERSLADCIKQDIGRHNCRHSEDAGVICDYFGKKASGNSNKESLSSVCGLRLLHRRQKRIIGGKNSLRGGWPWQVSLRLKSSHGDGRLLCGATLLSSCWVLTAAHCFKRYGNSTRSYAVRVGDYHTLVPEEFEEEIGVQQIVIHREYRPDRSDYDIALVRLQGPEEQCARFSSHVLPACLPLWRERPQKTASNCYITGWGDTGRAYSRTLQQAAIPLLPKRFCEERYKGRFTGRMLCAGNLHEHKRVDSCQGDSGGPLMCERPGESWVVYGVTSWGYGCGVKDSPGVYTKVSAFVPWIKSVTKL
proteolytic cleavage in the cotransfection assay (SDS-PAGE, immunoblot) [9]: neurotrypsin (NT) lacked proteolytic activity toward latent PDGF-CC | proteolytic cleavage in the cotransfection assay (SDS-PAGE, immunoblot) [10]: neither of the two enzymes was able to cleave and activate latent PDGF-DD
